US20240409645A1 (DUALYX, published 2024)

T1: human IL-2Rγ (common cytokine receptor γ-chain) (human, UniProt P31785 23-262, limits assumed)
T1 construct: Recombinant protein coated on the plate or immobilised on a CM5 chip; also called hu IL-2R; CD132
T1 sequence: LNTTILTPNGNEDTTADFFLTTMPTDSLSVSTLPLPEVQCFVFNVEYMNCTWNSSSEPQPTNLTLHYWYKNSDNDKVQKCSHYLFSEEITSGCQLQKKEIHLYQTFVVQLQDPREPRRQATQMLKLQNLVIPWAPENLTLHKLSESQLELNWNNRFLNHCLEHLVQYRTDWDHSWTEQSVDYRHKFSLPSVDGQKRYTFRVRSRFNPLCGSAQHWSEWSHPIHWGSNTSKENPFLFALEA


Assays:
[1] = molecular target: T1, human IL-2Rγ (common cytokine receptor …); assay: PE binding ELISA, periplasmic extract on coated protein
Description: In a binding ELISA, human or mouse IL-2Rα, IL-2Rβ and IL-2Rγ proteins were coated directly on maxisorp microtiter plates overnight at 4° C. Free binding sites were blocked using 4% Marvel in PBS for 1 hour. Next, 1:5 dilution of P.E. in 1% Marvel/PBS were added to wells and incubated for 1 hour. […] Binding specificity was determined based on O.D. at 450 nm values compared to negative controls.

[2] = molecular target: T1, human IL-2Rγ (common cytokine receptor …); assay: SPR off-rate ranking, periplasmic extract on immobilised protein
Description: SPR was performed to determine dissociation rates using Biacore 3000 instrument (GE Healthcare). Briefly, human and mouse IL-2R proteins were immobilized on carboxylmethyl dextran sensor chip (CM5) at approximately 2500 RUs using amine coupling in acetate buffer (GE Healthcare). The VHH-containing P.E. were loaded with a flow rate of 30 uL/min and the off-rates were measured over a 120s period.

| Binder | OD (PE binding ELISA) [1] [OD450 nm] | koff [2] [s⁻¹] |
| --- | --- | --- |
| 29-MP04H02 (VHH, VHH in periplasmic extract; also called FJ1427_P035MP04H02; clone nr) VHH: QVQLVESGGGLVQAGGSLRLACVASGLTFDNYYMGWFRQAPGKEREFVAGIIWNGDHTAYADSIKGRFTISRDNAKNTAYLRMNSLKPEDTAVYYCAATFWIERATTPDIGQYAYWGQGTQVTVSS | 0.157 | 0.00625 |
| 36-MP07F02 (VHH, VHH in periplasmic extract; also called FJ1427_P035MP07F02; clone nr; 590) VHH: QVQLVESGGGLVQAGGSLRLSCAASGRTLSRYAMGWFRQAPGSEREFVAASSWGGDTFYADSVEGRFTFSRDNAKNAVYLQMNSLQPEDTAAYYCAAAPTSFPTTAYSSSNSYAYWGQGTQVTVSS | 0.896 | 0.00331 |
| FJ1427_P035MP04B01 (VHH, VHH in periplasmic extract; also called clone nr; 290) VHH: EVQLVESGGGLVQAGASLRLSCAASGRTLSRYAMGWFRQAPGKEREFVAASSWGGDTYYADSVEGRFTFSRDNAKNAVYLQMNSLQPEDTAVYYCAGAPTSFATTAYSSSNSYAYWGQGTQVTVSS | 0.873 | 0.00327 |
| 27-MP04G01 (VHH, VHH in periplasmic extract; also called FJ1427_P035MP04G01; clone nr) VHH: QVQLVESGGGLVQAGGSLTLSCAAPGRTFGTDVVGWFRQAPGKEREFVASISRSGDGIYYDDSVKGRFTISRNNAWNTVNLQMNSLKVEDTAVYYCAAGDGWSTYDYWGQGTQVTVSS | 0.362 | 0.00131 |
| FJ1427_P035MP04C01 (VHH, VHH in periplasmic extract; also called clone nr) VHH: QVQLVESGGGLVQAGGSLTLSCAASGRTFSTDVVGWFRQAPGKEREFVASISRSGDGIYYDDSVKGRFTISRNNAWNTVNLQMNNLKVEDTAVYYCAAGDGWSTYDYWGQGTQVTVSS | 0.264 | 0.00124 |
| FJ1427_P035MP04G07 (VHH, VHH in periplasmic extract; also called clone nr) VHH: QVQLVESGGGWVQVGESLRLSCAPSGRTFVSGIMGWFRQAPGKEREFVARIILNNNSTRYTDSVKGRFTISRDSAKNTMYLQMNTLRPEDTAVYYCAARDRYGSGNSLSPSAYDYWGQGTQVTVSS | 0.863 | 0.0091 |
| FJ1427_P035MP04B10 (VHH, VHH in periplasmic extract; also called clone nr) VHH: EVQLVESGGGWVQVGESLRLSCAPSGRTFVSGIMGWFRQAPGKEREFVARIILNNNSTRYIDSVKGRFTISRDSAKNTMYLQMDSLRPEDTAVYYCAARDRYGSGNSLSPSAYDYWGQGTQVTVSL | 1.47 | 0.00749 |
| 30-MP04C03 (VHH, VHH in periplasmic extract; also called FJ1427_P035MP04C03; clone nr) VHH: EVQLVESGGGWVQDGGSLRLSCALSGRTFVRGIMGWFRQAPGKEREFVARIIWHINSTRYADSVKGRFTISRDSAKNTMYLQMDSLRPEDTAVYYCAARDRYGSGNSLSPSAYDYWGQGTQVTVSS | 1.49 | 0.00844 |
| FJ1427_P035MP04B11 (VHH, VHH in periplasmic extract; also called clone nr; 370) VHH: EVQLVESGGGWVQVGESLRLSCAPSGRTFVSGIMGWFRQAPGKEREFVARIILNNNSTRYIDSVKGRFTISRDSAKNTMYLQMDSLRPEDTAVYYCAARDRYGSGNSLSPSAYDYWGQGTQVTVSS | 0.75 | 0.0103 |
| FJ1427_P035MP04B06 (VHH, VHH in periplasmic extract; also called clone nr; 330) VHH: QLQLVESGGGWVQVGESLRLSCVPSGRTFVSGIMGWFRQAPGKEREFVARIILNNNSTRYTDSVKGRFTISRDSAKNTMYLQMNTLRPEDTAVYYCAARDRYGSGNSLSPSAYDYWGQGTQVTVSS | 1.45 | 0.0208 |
| FJ1427_P035MP04C05 (VHH, VHH in periplasmic extract; also called clone nr) VHH: QVQLVESGGGWVQVGESLRLSCAPSGRTFVSGIMGWFRQAPGKEREFVARIILNNNSTRYTDSVKGRFTISRDSAKDTMYLQMNTLRPEDTAVYYCAARDRYGSGNSLSPSAYDYWGQGTQVTVSS | 1.81 | 0.00775 |
| FJ1427_P035MP04A03 (VHH, VHH in periplasmic extract; also called clone nr) VHH: EVQLVESGGGWVQVGESLRLSCAPSGRTFVSGIMGWFRQTPGKEREFVARIILNNNSTRYTDSVKGRFTISRDSAKNTMYLQMNTLRPEDTAVYYCAARDRYGSGNSLSPSAYDYWGQGTQVTVSS | 1.87 | 0.00712 |
| FJ1427_P035MP04E02 (VHH, VHH in periplasmic extract; also called clone nr; 301) VHH: QVQLVESGGGWVQVGESLRLSCAPSGRTFVSGIMGWFRQTPGKEREFVARIILNNNSTRYTDSVKGRFTISRDSAKNTMYLQMNTLRPEDTAVYYCAARDRYGSGNSLSPSAYDYWGQGTQVTVSS | 1.98 | 0.00652 |
| FJ1427_P035MP04B02 (VHH, VHH in periplasmic extract; also called clone nr) VHH: QVQLVESGGGWVQVGESLRLSCAPSGRTFVSGIMGWFRQTPGKEREFVARIILNNNSTRYTDSVKGRFTISRDSAKNTMYLQMNTLRPEDTAVYYCAARDRYGSGNSLSPSAYDYWGQGTQVTVSS | 1.97 | 0.0285 |
| FJ1427_P035MP04A10 (VHH, VHH in periplasmic extract; also called clone nr) VHH: EVQLVESGGGWVQVGESLRLSCAPSGRTFVSGIMGWFRQAPGKEREFVARIILNNNSTRYTDSVKGRFTISRDSAKNTMYLQMNTLRPEDTAVYYCAARDRYGSGNSLSPSAYDYWGQGTQVTVSS | 1.85 | 0.0204 |
| FJ1427_P035MP04B07 (VHH, VHH in periplasmic extract; also called clone nr) VHH: EVQLVESGGGWVQVGESLRLSCAPSGRTFVSGIMGWFRQTPGKEREFVARIILNNNSTRYTDSVKGRFTISRDSAKNTLYLQMNTLRPEDTAVYYCAARDRYGSGNSLSPSAYDYWGQGTQVTVSS | 1.94 | 0.0187 |
| FJ1427_P035MP04C10 (VHH, VHH in periplasmic extract; also called clone nr) VHH: QVQLQESGGGWVQVGESLRLSCVPSGRTFVSGIMGWFRQAPGKEREFVARIILNNNSTRYTDSVKGRFTISRDSAKNTMYLQMNTLRPEDTAVYYCAARDRYGSGNSLSPSAYDYWGQGTQVTVSS | 1.33 | 0.0205 |
| FJ1427_P035MP04E04 (VHH, VHH in periplasmic extract; also called clone nr) VHH: EVQLVESGGGWVQVGESLRLSCVPSGRTFVSGIMGWFRQAPGKEREFVARIILNSNSTRYTDSVKGRFTISRDSAKNTMYLQMNSLRPEDTAVYYCAARDRYGSGNSLSPSAYDYWGQGTQVTVSS | 1.73 | 0.00796 |
| FJ1427_P035MP04D12 (VHH, VHH in periplasmic extract; also called clone nr; 380) VHH: QVQLVESGGGWVQVGKSLRLSCAPSGRTFVSGIMGWFRQAPGKEREFVARIILNNNSTRYIDSVKGRFTISRDSAKNTMYLQMDSLRPEDTAVYYCAARDRYGSGNSLSPSAYDYWGQGTQVTVSS | 1.05 | 0.0072 |
| FJ1427_P035MP04D09 (VHH, VHH in periplasmic extract; also called clone nr) VHH: QVQLVESGGGWVQVGESLRLSCAPSGRTFVRGIMGWFRQAPGKEREFVARIILNSNSTRYIDSVKGRFTISRDSAKNTMYLQMNSLRPEDTAVYYCAARDRYGSGNSLSPSAYDYWGQGTQVTVSS | 1.93 | 0.0207 |
| FJ1427_P035MP04C12 (VHH, VHH in periplasmic extract; also called clone nr) VHH: EVQLVESGGGWVQVGESLRLSCAPSGRTFVSGIMGWFRQAPGKEREFVARIILNNNSTRYIDSVKGRFTISRDSAKNTMYLQMDSLRPEDTAVYYCAARDRYGSGNSLSPSAYDYWGQGTQVTVSS | 1.68 | 0.00732 |
| FJ1427_P035MP04A07 (VHH, VHH in periplasmic extract; also called clone nr) VHH: QLQLVESGGGWVQVGESLRLSCAPSGRTFVSGIMGWFRQAPGKEREFVARIILNNNSTRYIDSVKGRFTISRDSAKNTMYLQMDSLRPEDTAVYYCAARDRYGSGNSLSPSAYDYWGQGTQVTVSS | 1.9 | 0.0196 |
